T1: ARHGEF11, O15085
T1 sequence (O15085 42-136, limits assumed, looked up): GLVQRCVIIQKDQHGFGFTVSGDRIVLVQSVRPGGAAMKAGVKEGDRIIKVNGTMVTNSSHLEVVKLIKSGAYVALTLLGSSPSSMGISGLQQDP

T2: DFNB31_2, Q9P202
T2 sequence (Q9P202 274-371, limits assumed, looked up): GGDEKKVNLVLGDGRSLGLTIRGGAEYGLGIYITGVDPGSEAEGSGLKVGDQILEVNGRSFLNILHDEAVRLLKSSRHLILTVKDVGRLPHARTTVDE

T3: DLG3_1, Q92796
T3 sequence (Q92796 125-227, limits assumed, looked up): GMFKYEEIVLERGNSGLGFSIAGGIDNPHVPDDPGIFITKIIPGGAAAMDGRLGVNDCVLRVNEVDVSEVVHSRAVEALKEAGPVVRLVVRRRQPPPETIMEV

T4: GRIP1_7, Q9Y3R0
T4 sequence (Q9Y3R0 999-1096, limits assumed, looked up): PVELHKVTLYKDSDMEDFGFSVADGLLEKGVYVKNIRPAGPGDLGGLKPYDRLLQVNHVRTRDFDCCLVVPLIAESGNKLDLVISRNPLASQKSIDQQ

T5: HTRA3, P83110
T5 sequence (P83110 354-453, limits assumed, looked up): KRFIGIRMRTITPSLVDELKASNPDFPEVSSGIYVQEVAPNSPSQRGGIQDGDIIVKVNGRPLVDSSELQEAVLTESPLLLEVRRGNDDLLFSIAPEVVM

T6: LIN7C, Q9NUP9
T6 sequence (Q9NUP9 88-185, limits assumed, looked up): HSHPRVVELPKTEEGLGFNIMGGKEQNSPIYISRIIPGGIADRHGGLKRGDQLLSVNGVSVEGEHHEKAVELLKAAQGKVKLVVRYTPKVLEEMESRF

T7: LNX2_3, Q8N448
T7 sequence (Q8N448 463-564, limits assumed, looked up): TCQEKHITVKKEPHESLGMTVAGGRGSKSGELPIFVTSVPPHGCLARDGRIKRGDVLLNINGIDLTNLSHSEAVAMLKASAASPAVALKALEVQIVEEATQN

T8: MPDZ_5, O75970
T8 sequence (O75970 695-796, limits assumed, looked up): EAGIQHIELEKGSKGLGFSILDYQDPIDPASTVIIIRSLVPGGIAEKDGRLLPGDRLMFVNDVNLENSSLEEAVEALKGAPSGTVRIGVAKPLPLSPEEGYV

T9: PARD3B_1, Q8TEW8
T9 sequence (Q8TEW8 196-299, limits assumed, looked up): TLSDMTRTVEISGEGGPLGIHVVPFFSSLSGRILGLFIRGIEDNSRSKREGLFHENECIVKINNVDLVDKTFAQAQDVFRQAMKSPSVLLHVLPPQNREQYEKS

T10: PDZD2_2, O15018
T10 sequence (O15018 329-429, limits assumed, looked up): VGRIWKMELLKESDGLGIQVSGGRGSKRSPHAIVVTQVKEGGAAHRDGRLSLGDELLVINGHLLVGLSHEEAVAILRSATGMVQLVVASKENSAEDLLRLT

T11: SNTA1, Q13424
T11 sequence (Q13424 82-180, limits assumed, looked up): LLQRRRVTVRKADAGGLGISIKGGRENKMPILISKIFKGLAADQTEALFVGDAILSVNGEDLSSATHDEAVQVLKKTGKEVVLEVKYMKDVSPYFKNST

T12: TX1BP3, O14907
T12 sequence (O14907 10-122, limits assumed, looked up): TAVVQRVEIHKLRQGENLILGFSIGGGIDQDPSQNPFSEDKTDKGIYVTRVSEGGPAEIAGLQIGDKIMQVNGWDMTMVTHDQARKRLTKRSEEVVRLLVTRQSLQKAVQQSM


Columns and labels:
Assay in all cases: holdup assay
Set-up in all cases: key: below the threshold = too weak to quantify, mostly under pKd 3.1 to 4
Details in all cases: plain residues with an end cap or a label only (N-terminal biotin on a linker: ado-ado)
ARHGEF11, O15085 = target: T1, ARHGEF11, O15085
DFNB31_2, Q9P202 = target: T2, DFNB31_2, Q9P202
DLG3_1, Q92796 = target: T3, DLG3_1, Q92796
FRMPD2_2, Q68DX3 = target: FRMPD2_2, Q68DX3
Chain of FRMPD2_2, Q68DX3 (Q68DX3 944-1038): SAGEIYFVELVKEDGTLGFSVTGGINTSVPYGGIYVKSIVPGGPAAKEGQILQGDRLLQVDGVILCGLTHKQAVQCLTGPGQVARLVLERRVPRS

FRMPD4, Q14CM0 = target: FRMPD4, Q14CM0
Chain of FRMPD4, Q14CM0 (Q14CM0 67-160): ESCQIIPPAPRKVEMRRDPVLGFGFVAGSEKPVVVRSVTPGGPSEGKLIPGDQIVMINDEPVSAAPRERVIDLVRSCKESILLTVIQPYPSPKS

GOPC, Q9HD26 = target: GOPC, Q9HD26
GORASP2, Q9H8Y8 = target: GORASP2, Q9H8Y8
GRID2IP_2, A4D2P6 = target: GRID2IP_2, A4D2P6
Chain of GRID2IP_2, A4D2P6 (A4D2P6 272-370): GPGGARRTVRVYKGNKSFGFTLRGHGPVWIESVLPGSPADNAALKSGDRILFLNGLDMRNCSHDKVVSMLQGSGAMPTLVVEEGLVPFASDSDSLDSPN

GRIP1_7, Q9Y3R0 = target: T4, GRIP1_7, Q9Y3R0
HTRA3, P83110 = target: T5, HTRA3, P83110
Inadl_1, Q8NI35 = target: Inadl_1, Q8NI35
Chain of Inadl_1, Q8NI35 (Q8NI35 113-229): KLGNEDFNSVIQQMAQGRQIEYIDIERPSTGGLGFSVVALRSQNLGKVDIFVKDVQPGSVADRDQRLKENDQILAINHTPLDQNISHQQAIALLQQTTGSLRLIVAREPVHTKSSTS

Inadl_3, Q8NI35 = target: Inadl_3, Q8NI35
Chain of Inadl_3, Q8NI35 (Q8NI35 359-469): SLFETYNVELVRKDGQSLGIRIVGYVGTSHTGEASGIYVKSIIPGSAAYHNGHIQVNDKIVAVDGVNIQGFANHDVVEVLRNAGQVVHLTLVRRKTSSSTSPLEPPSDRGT

Inadl_5, Q8NI35 = target: Inadl_5, Q8NI35
Chain of Inadl_5, Q8NI35 (Q8NI35 673-780): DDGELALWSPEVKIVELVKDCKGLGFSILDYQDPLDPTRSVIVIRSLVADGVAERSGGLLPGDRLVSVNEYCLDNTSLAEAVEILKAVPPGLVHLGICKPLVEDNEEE

LAP2, Q96RT1 = target: LAP2, Q96RT1
Chain of LAP2, Q96RT1 (Q96RT1 other isoform, or with tags, fused parts or gaps): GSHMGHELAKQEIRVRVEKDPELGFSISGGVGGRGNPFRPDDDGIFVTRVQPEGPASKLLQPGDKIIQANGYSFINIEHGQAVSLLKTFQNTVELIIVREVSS

LIN7C, Q9NUP9 = target: T6, LIN7C, Q9NUP9
LNX2_3, Q8N448 = target: T7, LNX2_3, Q8N448
MPDZ_5, O75970 = target: T8, MPDZ_5, O75970
NHERF2_2, Q15599 = target: NHERF2_2, Q15599
Chain of NHERF2_2, Q15599 (Q15599 142-238): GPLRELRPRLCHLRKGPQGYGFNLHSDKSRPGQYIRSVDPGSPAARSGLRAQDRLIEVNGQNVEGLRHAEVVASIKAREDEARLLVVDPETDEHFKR

PARD3B_1, Q8TEW8 = target: T9, PARD3B_1, Q8TEW8
PDZD2_2, O15018 = target: T10, PDZD2_2, O15018
SCRIB_2, Q14160 = target: SCRIB_2, Q14160
Chain of SCRIB_2, Q14160 (Q14160 857-960): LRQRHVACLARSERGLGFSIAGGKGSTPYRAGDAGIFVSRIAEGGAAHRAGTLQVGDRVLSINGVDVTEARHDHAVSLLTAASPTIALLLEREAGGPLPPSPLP

SNTA1, Q13424 = target: T11, SNTA1, Q13424
TJP1_2, Q07157 = target: TJP1_2, Q07157
Chain of TJP1_2, Q07157 (Q07157 181-274): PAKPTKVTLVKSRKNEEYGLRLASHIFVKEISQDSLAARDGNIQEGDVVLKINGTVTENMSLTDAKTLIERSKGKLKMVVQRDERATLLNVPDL

TX1BP3, O14907 = target: T12, TX1BP3, O14907

| pKd (ARHGEF11, O15085) | pKd (DFNB31_2, Q9P202) | pKd (DLG3_1, Q92796) | pKd (FRMPD2_2, Q68DX3) | pKd (FRMPD4, Q14CM0) | pKd (GOPC, Q9HD26) | pKd (GORASP2, Q9H8Y8) | pKd (GRID2IP_2, A4D2P6) | pKd (GRIP1_7, Q9Y3R0) | pKd (HTRA3, P83110) | pKd (Inadl_1, Q8NI35) | pKd (Inadl_3, Q8NI35) | pKd (Inadl_5, Q8NI35) | pKd (LAP2, Q96RT1) | pKd (LIN7C, Q9NUP9) | pKd (LNX2_3, Q8N448) | pKd (MPDZ_5, O75970) | pKd (NHERF2_2, Q15599) | pKd (PARD3B_1, Q8TEW8) | pKd (PDZD2_2, O15018) | Binder | other results |
| --- | --- | --- | --- | --- | --- | --- | --- | --- | --- | --- | --- | --- | --- | --- | --- | --- | --- | --- | --- | --- | --- |
| 3.55 | below the threshold | below the threshold | below the threshold | below the threshold | below the threshold | below the threshold | 3.75 | below the threshold | below the threshold | below the threshold | below the threshold | below the threshold | below the threshold | 3.95 | below the threshold | below the threshold | below the threshold | below the threshold | 3.55 | QQGLLPHSSC [TYRO3, Q06418] | pKd (SCRIB_2, Q14160): below the threshold; pKd (SNTA1, Q13424): below the threshold; pKd (TJP1_2, Q07157): below the threshold; pKd (TX1BP3, O14907): below the threshold |
| 4.06 | below the threshold | below the threshold | below the threshold | below the threshold | 4.56 | 3.87 | 4.16 | below the threshold | below the threshold | below the threshold | below the threshold | below the threshold | below the threshold | below the threshold | 3.61 | below the threshold | below the threshold | below the threshold | below the threshold | TFSRRPKTRV [CD226, Q15762] | pKd (SCRIB_2, Q14160): 3.54; pKd (SNTA1, Q13424): 3.79; pKd (TJP1_2, Q07157): 3.5; pKd (TX1BP3, O14907): below the threshold |
| 3.89 | below the threshold | below the threshold | below the threshold | 3.49 | below the threshold | below the threshold | 3.66 | below the threshold | 4.44 | below the threshold | below the threshold | below the threshold | below the threshold | below the threshold | below the threshold | below the threshold | below the threshold | below the threshold | 3.59 | KSRPENGTVC [TMEM178B, H3BS89] | pKd (SCRIB_2, Q14160): below the threshold; pKd (SNTA1, Q13424): below the threshold; pKd (TJP1_2, Q07157): below the threshold; pKd (TX1BP3, O14907): below the threshold |
| 3.66 | below the threshold | below the threshold | below the threshold | 4.05 | 4.1 | below the threshold | 3.86 | below the threshold | below the threshold | below the threshold | below the threshold | below the threshold | below the threshold | 4.28 | below the threshold | below the threshold | 5.19 | 4.47 | below the threshold | AKADAQESRL [PLCB2, Q00722] | pKd (SCRIB_2, Q14160): below the threshold; pKd (SNTA1, Q13424): 4.2; pKd (TJP1_2, Q07157): below the threshold; pKd (TX1BP3, O14907): 3.96 |
| 4.25 | below the threshold | 4.37 | below the threshold | below the threshold | 3.67 | 3.99 | 3.79 | below the threshold | below the threshold | below the threshold | below the threshold | 3.5 | 3.61 | 4.45 | below the threshold | below the threshold | 3.51 | below the threshold | 3.93 | TNSKQGETTV [FZD1, Q9UP38] | pKd (SCRIB_2, Q14160): 4.01; pKd (SNTA1, Q13424): 4.51; pKd (TJP1_2, Q07157): 3.48; pKd (TX1BP3, O14907): 4.17 |
| 3.94 | below the threshold | 3.91 | 5.03 | 3.56 | below the threshold | below the threshold | 3.49 | below the threshold | below the threshold | below the threshold | 4 | below the threshold | 4.5 | 3.97 | below the threshold | below the threshold | 3.56 | below the threshold | 4.97 | IQISELETNV [SLC1A7, O00341] | pKd (SCRIB_2, Q14160): 4.16; pKd (SNTA1, Q13424): 4.98; pKd (TJP1_2, Q07157): below the threshold; pKd (TX1BP3, O14907): 4.03 |
